Results from paper PMC10432850, “NME3 binds to phosphatidic acid and mediates PLD6-induced mitochondrial tethering” (The Journal of Cell Biology, 2023).

B1: NME3^ΔN-His (domain or fragment, human, UniProt Q13232 18-169, looked up)
chain: TGAHERTFLAVKPDGVQRRLVGEIVRRFERKGFKLVALKLVQASEELLREHYAELRERPFYGRLVKYMASGPVVAMVWQGLDVVRTSRALIGATNPADAPPGTIRGDFCIEVGKNLIHGSDSVESARREIALWFRADELLCWEDSAGHWLYE
notes: NME3 (nucleoside diphosphate kinase 3), human, lacking the N-terminal 17 amino acids (N17); also called N17 truncated NME3; source: E. coli BL21, purified (HisPur Ni-NTA resin, dialysed); not shown: His, C-terminal, kept
B2: NME3^WT-His (natural protein, human, UniProt Q13232 1-169, looked up)
chain: MICLVLTIFANLFPAACTGAHERTFLAVKPDGVQRRLVGEIVRRFERKGFKLVALKLVQASEELLREHYAELRERPFYGRLVKYMASGPVVAMVWQGLDVVRTSRALIGATNPADAPPGTIRGDFCIEVGKNLIHGSDSVESARREIALWFRADELLCWEDSAGHWLYE
notes: NME3 (nucleoside diphosphate kinase 3), human, wild type; also called NME3-His; source: E. coli BL21, purified (HisPur Ni-NTA resin, dialysed); not shown: His, C-terminal, kept

Target: the molecule itself
Experiment: cross-linking; 4 uM purified protein cross-linked with glutaraldehyde, detected by Western blotting

Row | Protein | stoichiometry N | binding result
1 | B1 | 6 | –
2 | B2 | – | binds
